Measured values from patent US20230257447A1 (published 2023).

T1: CMV phosphoprotein pp65 (SEQ 34) peptide on HLA-A*11:01 (human)
T1 peptide: ATVQGQNLK

B1: C45 (TCR, V domains shown)
Valpha: DQQVKQNSPSLSVQEGRISILNCDYTNSMFDYFLWYKKYPAEGPTFLISISSIKDKNEDGRFTVFLNKSAKHLSLHIVPSQPGDSAVYFCAASAWNTGNQFYFGTGTSLTVIP
Vbeta: KAGVTQTPRYLIKTRGQQVTLSCSPISGHRSVSWYQQTPGQGLQFLFEYFSETQRNKGNFPGRFSGRQFSNSRSEMNVSTLELGDSALYLCASSLAGYKQETQYFGPGTRLLVL
B2: C44 (TCR, V domains shown)
Valpha: AQTVTQSQPEMSVQEAETVTLSCTYDTSESDYYLFWYKQPPSRQMILVIRQEAYKQQNATENRFSVNFQKAAKSFSLKISDSQLGDAAMYFCAYRAFYTGANSKLTFGKGITLSVRP
Vbeta: DAGVTQSPTHLIKTRGQQVTLRCSPKSGHDTVSWYQQALGQGPQFIFQYYEEEERQRGNFPDRFSGHQFPNYSSELNVNALLLGDSALYLCASSFFRGEGNQPQHFGDGTRLSIL

Target: T1, CMV phosphoprotein pp65 (SEQ 34) …
Assay: multimer staining

Row | Binder | binding result
1 | B1 | recognises
2 | B2 | recognises
